# Paper PMC6763467 (2019)
# B1: E. coli MtlR fused with His6-tag (ecHisMtlR), wild type [E. coli] / E. coli histidine phosphocarrier protein HPr (dephosphorylated, untagged) [E. coli] (parent complex)
# chain 1: MVDQAQDTLRPNNRLSDMQATMEQTQAFENRVLERLNAGKTVRSFLITAVELLTEAVNLLVLQVFRKDDYAVKYAVEPLLDGDGPLGDLSVRLKLIYGLGVINRQEYEDAELLMALREELNHDGNEYAFTDDEILGPFGELHCVAALPPPPQFEPADSSLYAMQIQRYQQAVRSTMVLSLTELISKISLKKAFQK
# chain 2: not shown
# Variants of: B1
# Experiment: His-tag pull-down (Talon metal affinity chromatography), SDS-PAGE band densitometry; 200 μg His-MtlR, 200 μg HPr; 20 mM Tris-HCl (pH 7.5), 50 mM NaCl, 2 mM β-mercaptoethanol, 5% glycerol; wash 10 mM imidazole, elution 150 mM imidazole
row,Variant,percent of parent [%]
1,chain 1 L112A,47
2,chain 1 L112W,95
3,chain 1 A115W,45
4,chain 1 E140S,67
5,chain 1 E108S,76

# Variants of: B1
# Experiment: His-tag pull-down (Talon metal affinity resin), SDS-PAGE band densitometry; 200 μg His-MtlR, 200 μg HPr, 20 μl EI-overproducing cell lysate, 2 mM MgCl2, 50 μl Talon resin; no PEP
row,Variant,percent of parent [%]
1,chain 1 E140S,68
2,chain 1 E108S,65
3,"chain 1 E108S, chain 1 E140S",35
